In PMC7310041:

Target: microtubules (paclitaxel-stabilised polymerised tubulin) (human (endogenous in HEK293T)) (UniProt P68363)
Test: co-sedimentation; cell-based MT binding assay: lysate of transfected HEK293T cells in PEM buffer (80 mM PIPES pH 6.8, 1 mM EGTA, 1 mM MgCl2) with 0.1% Triton X-100, 2 mM GTP, 20 uM paclitaxel; 37 °C 30 min; 100,000 g 30 min; tau in supernatant and pellet by Western blot; percent MT-bound = pellet/(supernatant+pellet)*100

Sequence of UniProt P68363 (P68363 whole entry, chain 1 of 2): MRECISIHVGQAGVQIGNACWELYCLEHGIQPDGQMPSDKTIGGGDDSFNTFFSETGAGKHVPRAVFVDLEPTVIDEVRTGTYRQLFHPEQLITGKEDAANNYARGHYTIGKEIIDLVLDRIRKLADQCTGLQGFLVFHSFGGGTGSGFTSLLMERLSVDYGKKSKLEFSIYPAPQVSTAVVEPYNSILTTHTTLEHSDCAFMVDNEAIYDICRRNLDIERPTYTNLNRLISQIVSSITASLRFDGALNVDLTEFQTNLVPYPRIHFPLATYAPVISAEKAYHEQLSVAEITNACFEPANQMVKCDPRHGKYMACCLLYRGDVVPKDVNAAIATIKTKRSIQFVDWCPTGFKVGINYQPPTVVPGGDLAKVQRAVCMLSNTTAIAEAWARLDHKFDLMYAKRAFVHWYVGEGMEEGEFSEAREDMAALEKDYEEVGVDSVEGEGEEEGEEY
Sequence of UniProt P68363 (P07437 whole entry, chain 2 of 2, further chain): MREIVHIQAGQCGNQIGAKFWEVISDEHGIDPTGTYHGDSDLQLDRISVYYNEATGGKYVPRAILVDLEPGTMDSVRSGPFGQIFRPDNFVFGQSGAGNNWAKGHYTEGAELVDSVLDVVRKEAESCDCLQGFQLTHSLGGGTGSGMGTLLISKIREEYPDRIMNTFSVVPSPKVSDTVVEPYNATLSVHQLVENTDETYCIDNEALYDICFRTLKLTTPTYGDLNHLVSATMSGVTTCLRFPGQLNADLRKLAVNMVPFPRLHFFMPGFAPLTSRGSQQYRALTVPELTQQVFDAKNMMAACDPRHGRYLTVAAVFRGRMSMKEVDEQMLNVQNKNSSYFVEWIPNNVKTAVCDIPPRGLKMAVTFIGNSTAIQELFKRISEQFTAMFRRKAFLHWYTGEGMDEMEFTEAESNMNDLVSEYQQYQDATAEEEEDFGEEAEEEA

percent of tau bound to MTs: 41%
Substance: 2N4R human tau S208E phosphomimetic (from UniProt P10636-8 1-441) (natural protein)
